From patent publication US12391768B2, “Antibodies to ticagrelor and methods of use” (MEDIMMUNE LIMITED, priority 2014, dated 2025)

Experiments:
[1] = test system: ADP-induced platelet aggregation in whole blood; experiment: Ex vivo whole blood impedance aggregometry after i.v. dosing of ticagrelor treated mice; format: in vivo; conditions: for mean ADP-induced aggregation response: n=4
Method: The speed of onset and the extent of TICA0212/MEDI2452 mediated reversal of ticagrelor mediated inhibition of ADP-induced platelet aggregation in whole blood (impedance aggregometry) was determined ex vivo after intravenous (i.v.) dosing of ticagrelor in mice. Mice were given ticagrelor i.v. as a bolus of 1200 μg/kg. over 5 minutes, followed by a 15 min continuous infusion of 30 μg/kg/min. After termination of the ticagrelor infusion, when ticagrelor plasma exposure was measured to be in average 1.4 μM, mice were given an i.v. bolus of 250 mg/kg TICA0212/MEDI2452. At 5, 30, and 60 min post TICA0212/MEDI2452 administration mice were sacrificed and blood samples were collected. In this study the ADP-induced aggregation response was measured for 6 min and data expressed as the mean area under the curve of aggregation unit (AU) recorded over time (AU*min).
In carrying out the impedance aggregometry assay, mice were sacrificed and blood samples were collected into 7 μM hirudin. Blood (175 μL) was added to pre-heated […] (37° C., 175 μL) in the Multiplate mini test cells and mixed for 3 min before addition of ADP, 12 μL, to a final concentration of 6.5 μM. The disposable Multiplate mini test cells contain a stir bar and have two separate pair of electrodes that are immersed into the blood sample.
When agonist (ADP) is added and shear is induced by stirring, platelets will start to adhere and aggregate onto the electrodes.
(§1) Mice were pre-treated with a continuous infusion of ticagrelor, 300 μg/kg/min or vehicle for 20 minutes. After stop of infusion, t=0, a bolus dose of TICA0212/MEDI2452 (600 mg/kg) or vehicle (histidine sucrose buffer) was given over 45 seconds and at t=30 minutes bleeding was induced by cutting 5mm from the tip of the tail. The tip of the tail was rinsed with water (2 mL/min) and the blood and water mixture was collected in a small chamber, where a stirrer mixed the fluid to enhance haemolysis and establish a homogeneous solution. Light transmission, at 525 nm, was recorded for 30 minutes when terminal blood samples were collected from the abdominal aorta for platelet aggregation. Light transmittance was transformed to absorbance and used to calculate blood loss as area under the absorbance curve (AUC, absorbance*s) and total bleeding time (BT, s) by plotting absorbance over time. All transmittance below 95% was defined as bleeding. Samples for platelet aggregation and total and free plasma exposure were also collected at end of ticagrelor infusion (t=0) and at time of tail cut (t=30 minutes).

[2] = test system: mouse tail bleeding; experiment: Prophylactic mouse tail bleeding study; format: in vivo, mice
Method: as §1
Studies were approved by the ethical committee for animal research at the University of Göteborg, Sweden. Mice were anaesthetised with isofluran gas (Forenc®, Abbot Scandinavia AB, Sweden). A catheter was inserted in the left jugular vein for administration of vehicle or drug. The body temperature was maintained at 38° C. by external heating.
To translate the effect of TICA0212/MED12452 on platelet aggregation to a potential effect on bleeding, a prophylactic mouse tail bleeding study was performed. Ticagrelor was infused to a mean total ticagrelor and TAM plasma concentration of 7.6 and 0.3 μM, respectively, to provide a significant drug-dependant bleeding window. Immediately after stopping the ticagrelor infusion TICA0212/MEDI2452 was dosed as a single bolus of 600 mg/kg over 30 seconds. […] Bleeding was initiated by a tail cut and monitored for 30 minutes. In vehicle treated mice the mean total ticagrelor and TAM plasma concentration at time of tail cut were 2.4 and 0.6 μM. […] In this prophylactic setting TICA0212/MED12452 normalized ticagrelor dependent bleeding.

[3] = test system: TAM mediated inhibition of ADP-induced platelet aggregation; experiment: Light transmission aggregometry in human PRP, reversal of TAM; format: cell-based; conditions: for mean extent of TAM reversal: Example 10, 1 μM Fab, n=3
Method: The extent and potency of TICA0212/MEDI2452 to reverse ticagrelor or TAM mediated inhibition of ADP-induced platelet aggregation was determined in human platelet rich plasma (PRP) using light transmission aggregometry.
For the in vitro human PRP assay, blood was collected from fasted healthy volunteers by vein puncture of vena cephalica. […] The anticoagulated human blood was centrifuged at 240× g for 15 min. PRP was carefully removed and transferred to a clean vial. Platelet poor plasma (PPP) was prepared by centrifugation of the PRP at 2000× g for 15 min. Light transmission aggregometry (LTA) was evaluated in PRP by the Platelet Aggregation Profiler (PAP-8E, Bio/Data Corporation, PA, USA.). Zero % aggregation was defined as the light transmission of PRP and 100% aggregation was defined as the light transmission of PPP.
PRP was preincubated with 1 μM ticagrelor or TAM for 1 hour before co-incubating with different concentrations of TICA0212 or an isotype control Fab for 30 minutes. Platelet aggregation was initiated by addition of 20 uM ADP and was continuously recorded for 6 min. Data for final aggregation (FA) extent at 6 min was analysed.
The time of onset of TICA0212/MEDI2452 to reverse ticagrelor or TAM was determined in human platelet rich plasma (PRP) using light transmission aggregometry as in example 8. PRP was preincubated with 1 μM ticagrelor or TAM for 1 hour before adding 1 μM TICA0212/MEDI2452 and co-incubating for 5, 10, 15, 30 and 60 min, or adding an isotype control Fab for 30 min. Platelet aggregation was initiated by addition of 20 μM ADP and was continuously recorded for 6 min. Data for final aggregation (FA) extent at 6 min was analyzed.

[4] = 5 min after ticagrelor infusion (1200 μg/kg bolus + 30 μg/kg/min) and bolus (PBS or 250 mg/kg Fab i.v.)
[5] = 30 min after ticagrelor infusion (1200 μg/kg bolus + 30 μg/kg/min) and bolus (PBS or 250 mg/kg Fab i.v.)
[6] = 60 min after ticagrelor infusion (1200 μg/kg bolus + 30 μg/kg/min) and bolus (PBS or 250 mg/kg Fab i.v.)
[7] = ticagrelor versus vehicle, p<0.05
[8] = 600 mg/kg bolus 30 min before tail cut, n=12

CCCSc1nc(N[C@@H]2C[C@H]2c2ccc(F)c(F)c2)c2nnn([C@@H]3C[C@H](OCCO)[C@@H](O)[C@H]3O)c2n1 [Ticagrelor, (1S,2S,3R,5S)-3-[7-{[(1R,2S)-2-(3,4-difluorophenyl)cyclopropyl]amino}-5-(propylthio)-3H-[1,2,3]triazolo[4,5-d]pyrimidin-3-yl]-5-(2-hydroxyethoxy)cyclopentane-1,2-diol] was tested, and the “mean ADP-induced aggregation response” value [1, 4] was 2 AU*min, the “mean ADP-induced aggregation response” value [1, 5] was 6 AU*min and the “mean ADP-induced aggregation response” value [1, 6] was 14 AU*min. The “bleeding time over 30 minutes, enhancement” value [2, 7] was about 1.6 fold and the “total blood loss over 30 minutes, enhancement” value [2, 7] was “about 3.8 fold”.

B1: TICA0212: combination of TICA0162 and TICA0152; VH SEQ ID NO:72, VL SEQ ID NO:77 (antibody, listed as Homo sapiens, V domains shown)
VH: QVQLQESGAEVKKPGSSVRVSCKASGGTFDSYSIHWVRQAPGQGLEWMGGIIPAFGTLSSAQDFQARVTISADKSTSTAYMELSGLRSEDTAVYYCARGSFDYYFWSASHPPNDALAIWGQGTLVTVSS
VL: QSVVTQPPSVSAAPGQKVTISCSGSNSDIGNNYVSWYQQLPGTAPKLLIYDNNKRPSGIPDRFSGSKSGTSATLAITGLQAGDEADYYCGTWLYDRAVGLFGGGTKVTVL
In the case of B1, the “mean ADP-induced aggregation response” value [1, 4] is reported as 147 AU*min, the “mean ADP-induced aggregation response” value [1, 5] is reported as 448 AU*min and the “mean ADP-induced aggregation response” value [1, 6] is reported as 413 AU*min. The ADP-induced aggregation ([1]; Example 12, 30 minutes after single bolus of 600 mg/kg, ticagrelor 300 μg/kg/min for 20 min) was “fully normalized”, the IC50 ([3]; 1 μM TAM, 20 μM ADP, human PRP, 30 min co-incubation, mean n=5, read-out: IC50, half-maximum reversal of TAM mediated inhibition of ADP-induced platelet aggregation) was 780 nM and the “mean extent of reversal of TAM” value ([3]; Example 9, 1:1 conditions (1 μM Fab: 1 μM TAM), 30 min incubation) was 62%. For the same molecule, the “mean extent of TAM reversal” value ([3]; 1 μM TAM, co-incubation 5 min) was 53%, the “mean extent of TAM reversal” value ([3]; 1 μM TAM, co-incubation 10 min) was 56% and the “mean extent of TAM reversal” value ([3]; 1 μM TAM, co-incubation 15 min) was 58%. The “mean extent of TAM reversal” value ([3]; 1 μM TAM, co-incubation 30 min) was 69%, the “mean extent of TAM reversal” value ([3]; 1 μM TAM, co-incubation 60 min) was 74% and the “bleeding time relative ticagrelor alone” value [2, 8] was “significantly (p<0.05) reversed”. For the same molecule, the “blood loss relative ticagrelor alone” value [2, 8] was “significantly (p<0.05) reversed”.
